The values that follow come from paper PMC5803212, “Supramolecular aptamer nano-constructs for receptor-mediated targeting and light-triggered release of chemotherapeutics into cancer cells”.

The target in series [1] is cMet-Fc (HGFR ectodomain fused to human IgG1 Fc) (human) (UniProt P08581). Put plainly: competition filter binding. To be noted: vs 5'-32P-trCLN3; ~50 nM cMet; four 5'-terminal 5-(1-dodecynyl)-dU (C12 lipid; printed as LLLL, written as UUUU); 1x PBS pH 7.4, 2 mM MgCl2, 0.1 mg/mL E. coli tRNA, 0.25 mg/mL BSA, 37 C, 30 min; ~25 fmol 32P-trCLN3, ~50 nM cMet, 25 uL, nitrocellulose filter.

Series [2] concerns the target cMet-Fc (HGFR ectodomain fused to human IgG1 Fc) (human, UniProt P08581 25-932). Nature of the series: competition filter binding; vs 5'-32P-trCLN3; ~50 nM cMet; 1x PBS pH 7.4, 2 mM MgCl2, 0.1 mg/mL E. coli tRNA, 0.25 mg/mL BSA, 37 C, 30 min; ~25 fmol 32P-trCLN3, ~50 nM cMet, 25 uL, nitrocellulose filter. To be noted: protein: commercial; two predicted intramolecular G-quadruplexes.

Chain of cMet-Fc (HGFR ectodomain fused to human IgG1 Fc) (human) (P08581 25-932): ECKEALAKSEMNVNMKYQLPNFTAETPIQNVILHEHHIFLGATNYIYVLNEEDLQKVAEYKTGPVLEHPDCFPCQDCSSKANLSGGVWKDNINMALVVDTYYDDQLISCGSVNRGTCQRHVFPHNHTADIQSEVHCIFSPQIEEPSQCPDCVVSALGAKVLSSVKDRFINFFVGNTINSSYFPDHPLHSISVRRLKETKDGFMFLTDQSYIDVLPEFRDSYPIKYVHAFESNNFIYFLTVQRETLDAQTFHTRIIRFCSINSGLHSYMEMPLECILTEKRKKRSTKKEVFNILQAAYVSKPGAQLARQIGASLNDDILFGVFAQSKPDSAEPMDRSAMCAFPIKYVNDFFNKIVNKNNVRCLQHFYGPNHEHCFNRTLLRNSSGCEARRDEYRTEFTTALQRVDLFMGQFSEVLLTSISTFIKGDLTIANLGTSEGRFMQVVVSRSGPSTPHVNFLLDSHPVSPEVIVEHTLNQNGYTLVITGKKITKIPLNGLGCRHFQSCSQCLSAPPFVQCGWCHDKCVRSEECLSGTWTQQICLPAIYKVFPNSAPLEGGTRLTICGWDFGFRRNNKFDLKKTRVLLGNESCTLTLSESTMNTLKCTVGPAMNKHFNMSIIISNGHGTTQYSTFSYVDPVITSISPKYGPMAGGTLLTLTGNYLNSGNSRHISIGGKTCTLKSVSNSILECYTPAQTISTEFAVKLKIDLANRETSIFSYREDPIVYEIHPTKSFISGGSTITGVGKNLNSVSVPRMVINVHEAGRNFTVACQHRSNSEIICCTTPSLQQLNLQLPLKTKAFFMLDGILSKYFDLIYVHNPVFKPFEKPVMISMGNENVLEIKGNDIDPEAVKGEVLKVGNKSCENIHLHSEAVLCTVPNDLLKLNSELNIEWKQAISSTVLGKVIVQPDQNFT
Chain of cMet-Fc (HGFR ectodomain fused to human IgG1 Fc) (P08581 25-932): as above

For “UUUUTGGATGGTAGCTCGGTCGGGGTGGGTGGGTTGGCAAGTCT [trCLN3-L4]”, the IC50 (usually the concentration that gives 50% inhibition) in series [1] turned out to be 0.043 µM.

On to TGGATGGTAGCTCGGTCGGGGTGGGTGGGTTGGCAAGTCT (structured_DNA) [trCLN3], for which the IC50 in series [2] was 0.056 µM.
